Reference: patent US20060105385, “Xenobiotic related induction of gene expression” (The University of Sydney, published 2006)

Experiments:
Conditions in all cases: label: 32P
[1] = target: T1, hPXR-RXR heterodimer (human pregnane X receptor / retinoid X receptor) (UniProt O75469;P19793 O75469:1-434,P19793:1-462); assay: EMSA; efficient gel shift
Description: (§1) The hPXR is an orphan nuclear receptor, belonging to the nuclear receptor gene superfamily. […] In order to evaluate the affinity of these putative response elements for HPXR-RXR heterodimers, electromobility shift assays (EMSA) were performed using with in-vitro transcribed/translated hPXR and RXR.

[2] = target: T1, hPXR-RXR heterodimer (human pregnane X …); assay: EMSA; no shift apparent; mutation of the site lowers reporter to 52% of wild type
Description: as §1

[3] = target: T1, hPXR-RXR heterodimer (human pregnane X …); assay: EMSA; no shift apparent; described as functionally important by mutagenesis
Description: as §1

T1 sequence (O75469 whole entry, chain 1 of 2): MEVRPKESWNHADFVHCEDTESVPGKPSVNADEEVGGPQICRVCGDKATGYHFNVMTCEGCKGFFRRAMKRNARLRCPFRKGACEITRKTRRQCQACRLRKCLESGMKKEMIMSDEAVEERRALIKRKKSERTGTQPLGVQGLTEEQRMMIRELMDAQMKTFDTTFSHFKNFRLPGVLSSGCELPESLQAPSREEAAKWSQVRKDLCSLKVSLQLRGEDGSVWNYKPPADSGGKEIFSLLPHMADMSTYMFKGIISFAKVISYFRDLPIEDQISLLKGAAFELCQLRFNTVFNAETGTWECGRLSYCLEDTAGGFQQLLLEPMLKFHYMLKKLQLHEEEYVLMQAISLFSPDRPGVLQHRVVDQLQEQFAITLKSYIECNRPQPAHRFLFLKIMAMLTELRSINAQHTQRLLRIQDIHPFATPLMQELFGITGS
T1 sequence (P19793 whole entry, chain 2 of 2): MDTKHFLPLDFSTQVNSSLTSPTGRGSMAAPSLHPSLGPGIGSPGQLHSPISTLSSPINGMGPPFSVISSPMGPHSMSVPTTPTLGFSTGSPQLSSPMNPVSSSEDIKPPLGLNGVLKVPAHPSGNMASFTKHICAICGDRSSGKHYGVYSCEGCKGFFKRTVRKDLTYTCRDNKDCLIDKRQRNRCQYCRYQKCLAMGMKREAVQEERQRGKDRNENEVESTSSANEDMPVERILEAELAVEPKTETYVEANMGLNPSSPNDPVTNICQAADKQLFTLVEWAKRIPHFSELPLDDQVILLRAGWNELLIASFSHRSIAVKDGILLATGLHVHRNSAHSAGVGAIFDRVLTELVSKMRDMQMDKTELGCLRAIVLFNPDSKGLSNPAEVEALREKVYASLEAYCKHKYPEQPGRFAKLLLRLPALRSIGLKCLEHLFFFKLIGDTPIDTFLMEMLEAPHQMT

| Binder | binding result [1] | also measured |
| --- | --- | --- |
| XREM-DR3-1 (dsDNA) DNA 1: GAATGAACTTGCTGACCCTCT DNA 2: AGAGGGTCAGCAAGTTCATTC | binds | – |
| Prox-ER6 (dsDNA) DNA 1: ATATGAACTCAAAGGAGGTCAGTG DNA 2: CACTGACCTCCTTTGAGTTCATAT | binds | – |
| XREM-DR6 (dsDNA) DNA 1: AGGTGAATCACAAGCTGAACTTCT DNA 2: AGAAGTTCAGCTTGTGATTCACCT | – | binding result [2]: no binding |
| XREM-DR3-2 (dsDNA) DNA 1: ATATATTGTTATTGAACTATC DNA 2: GATAGTTCAATAACAATATAT | – | binding result [3]: no binding |
